Consider two molecules from US20180072803A1 (MINOMIC INTERNATIONAL, published 2018).

Experiment [1] addresses T1, MIL-38 antigen (GPC-1) as present in DU-145 and other cell lines (UniProt P35052 24-530).
T1 construct: whole, on cells; In IFA it stood on acetone-fixed cells; in Western blots it stood in membrane protein (MPEK) extracts of the cells; also called GPC-1 antigen
T1 sequence (looked up): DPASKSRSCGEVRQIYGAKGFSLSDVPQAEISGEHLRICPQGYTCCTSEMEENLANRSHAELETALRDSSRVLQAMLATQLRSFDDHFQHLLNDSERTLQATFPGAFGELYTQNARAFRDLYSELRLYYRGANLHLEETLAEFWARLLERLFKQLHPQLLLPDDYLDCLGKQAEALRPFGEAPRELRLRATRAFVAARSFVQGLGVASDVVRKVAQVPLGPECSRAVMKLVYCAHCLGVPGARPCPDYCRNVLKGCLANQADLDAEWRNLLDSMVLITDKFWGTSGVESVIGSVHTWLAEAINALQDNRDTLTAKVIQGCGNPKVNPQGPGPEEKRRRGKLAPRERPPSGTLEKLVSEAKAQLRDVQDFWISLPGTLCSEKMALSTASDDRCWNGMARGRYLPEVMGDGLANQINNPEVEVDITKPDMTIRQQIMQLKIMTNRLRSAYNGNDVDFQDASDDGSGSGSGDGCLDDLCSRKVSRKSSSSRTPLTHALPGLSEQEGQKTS
Put plainly: Western blot on DU-145 and C3 extracts (FIG. 2B).

Experiment [2] deals with T2, recombinant human GPC-1 produced from NS0 cells (human, UniProt P35052 24-530).
T2 construct: also called GPC-1 NS0; recombinant NS0-produced GPC-1
T2 sequence (looked up): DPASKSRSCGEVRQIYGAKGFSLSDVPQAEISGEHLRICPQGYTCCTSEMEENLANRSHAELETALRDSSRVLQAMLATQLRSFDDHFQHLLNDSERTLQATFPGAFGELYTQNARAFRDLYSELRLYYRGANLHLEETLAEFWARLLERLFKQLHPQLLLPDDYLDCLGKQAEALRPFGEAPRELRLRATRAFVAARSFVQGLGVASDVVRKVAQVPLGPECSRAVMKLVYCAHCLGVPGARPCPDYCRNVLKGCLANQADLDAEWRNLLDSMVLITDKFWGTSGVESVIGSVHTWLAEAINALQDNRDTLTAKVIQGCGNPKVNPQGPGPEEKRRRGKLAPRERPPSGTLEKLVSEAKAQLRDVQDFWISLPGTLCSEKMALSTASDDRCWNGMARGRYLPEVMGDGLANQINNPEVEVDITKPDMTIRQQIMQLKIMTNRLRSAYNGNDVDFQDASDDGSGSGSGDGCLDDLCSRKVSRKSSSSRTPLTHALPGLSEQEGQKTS
Put plainly: sandwich ELISA, antibody coated as capture, biotinylated AM-4 as detection (FIG. 6A). As for the experimental part:
Plates were blocked with PBS-Tween (0.1.%) containing 5% skim milk at 37° C. and washed. Antigen (recombinant human GPC-1 produced from NS0 cells) diluted in Buffer II (20 mM HEPES pH 7.5, 0.5 mM EDTA, 0.5% Triton X-100) with the addition of 150 mM NaCl and incubated overnight at 37° C. […] Absorbance was read 450 nm.
(In general: In an ELISA, binding on a coated surface is turned into a signal by an enzyme label.)

Experiment [3] addresses T2, recombinant human GPC-1 produced from …. Put plainly: Western blot, three-antibody detection. On the procedure:
As a control, murine MIL-38 was detected by goat anti-mouse secondary antibody followed by a sheep-anti-goat HRP antibody. […] The complex was detected using a sheep-anti-goat HRP antibody. […] The complex was detected using a sheep-anti-mouse HRP antibody.
A control western blot using a three antibody detection method was also performed with murine MIL-38. (FIG. 9C).
(In general: In western blotting, separated proteins are transferred to a membrane and probed.)

Experiment [4] concerns the target T1, MIL-38 antigen (GPC-1) as present in …. Put plainly: immunofluorescence assay on DU-145 cells (FIG. 8F). On the procedure: IFA: Cells were grown on coverslips until 75% confluent and placed in 6 well plates. The cells were washed with PBS followed by fixing with acetone. Cells were washed again with PBS followed by incubation with TBS then blocked with PBS containing 5% skim milk. […] Both antibodies were prepared in PBS containing 1% skim milk followed. Washing with PBS was performed between the primary and secondary antibody incubations. After secondary incubation, cells were washed with PBS containing DAPI and visualised for green fluorescence (MIL-38 positive).
A slide with no primary antibody was used as a negative control.

B1: AM-4 MIL-38 antibody (AusMAb 4) (antibody, mouse IgG1, kappa)
heavy: QIQLVQSGPELKKPGETVKISCKASGYAFTDYSMNWVKQAPGKGLRWMGWINTETGEPTYTDDFKGRFAFSLETSASTAFLQINNLRNEDTATYFCARHYDYGGFPYWGQGTLVTVSAAKTTPPSVYPLAPGSAAQTNSMVTLGCLVKGYFPEPVTVTWNSGSLSSGVHTFPAVLQSDLYTLSSSVTVPSSTWPSETVTCNVAHPASSTKVDKKIVPRDCGCKPCICTVPEVSSVFIFPPKPKDVLTITLTPKVTCVVVDISKDDPEVQFSWFVDDVEVHTAQTQPREEQFNSTFRSVSELPIMHQDWLNGKEFKCRVNSAAFPAPIEKTISKTKGRPKAPQVYTIPPPKEQMAKDKVSLTCMITDFFPEDITVEWQWNGQPAENYKNTQPIMDTDGSYFVYSKLNVQKSNWEAGNTFTCSVLHEGLHNHHTEKSLSHSPGK
light: DIQMTQSPASLSASVGETVTITCRASGNVHNYLAWYQQKQGKSPQLLVYTAKTLADGVPSRFSGSGSGTQYSLKINSLQPEDFGTYYCQHFWSNPWTFGGGTKLEIKRADAAPTVSIFPPSSEQLTSGGASVVCFLNNFYPKDINVKWKIDGSERQNGVLNSWTDQDSKDSTYSMSSTLTLTKDEYERHNSYTCEATHKTSTSPIVKSFNRNEC
notes: Monoclonal mouse IgG1 kappa; Biotinylated AM-4 was also the detection antibody in the sandwich ELISA; also called monoclonal AM-4 MIL-38
Take B1: the binding result in experiment [1] and in experiment [2] was “binds” in each case.

B2: Chimeric MIL-38 antibody (Mouse VH-Human CH1-CH3 / Mouse VK-Human CK) (antibody, human IgG1, kappa)
heavy: not shown
light: DIQMTQSPASLSASVGETVTITCRASGNVHNYLAWYQQKQGKSPQLLVYTAKTLADGVPSRFSGSGSGTQYSLKINSLQPEDFGTYYCQHFWSNPWTFGGGTKLEIKRTVAAPSVFIFPPSDEQLKSGTASVVCLLNNFYPREAKVQWKVDNALQSGNSQESVTEQDSKDSTYSLSSTLTLSKADYEKHKVYACEVTHQGLSSPVTKSFNRGEC
notes: Expressed transiently in CHO-3E7 cells and purified on Protein A; also called MIL-38 chimeric antibody
With B2, the binding result in experiment [3] and in experiment [4] was “binds” in each case.
